Columns and labels:
HLA-A*02:02 = assay: IEDB peptide-MHC binding, cellular MHC/competitive/fluorescence; ≥ and ≤ were set here for values at or beyond the usual limits of such assays
HLA-A*02:01 [1] = assay: as above
HLA-A*68:02 [2] = assay: as above
HLA-A*02:06 = assay: as above
HLA-A*02:03 = assay: as above
HLA-A*02:01 [3] = assay: IEDB peptide-MHC binding, purified MHC/competitive/radioactivity; ≥ and ≤ were set here for values at or beyond the usual limits of such assays; conditions: source organism: Vaccinia virus WR
HLA-A*68:02 [4] = assay: as above
[5] = source organism: Influenza A virus
[6] = source organism: Mammarenavirus guanaritoense
[7] = source organism: Vaccinia virus WR
[8] = source organism: Mammarenavirus choriomeningitidis

Row | Sequence | IC50 (HLA-A*02:02; [7]) [µM] | IC50 (HLA-A*02:01 [1]; [7]) [µM] | IC50 (HLA-A*02:06; [7]) [µM] | IC50 (HLA-A*02:03; [7]) [µM] | IC50 (HLA-A*68:02 [4]; [7]) [µM] | also measured
1 | ATRRMIQL |  |  |  |  |  | IC50 (HLA-A*02:02; [5]): ≥ 70 µM; IC50 (HLA-A*02:01 [1]; [5]): ≥ 70 µM; IC50 (HLA-A*68:02 [2]; [5]): ≥ 70 µM; IC50 (HLA-A*02:06; [5]): ≥ 70 µM; IC50 (HLA-A*02:03; [5]): ≥ 70 µM
2 | YVIGLLPQS |  |  |  |  |  | IC50 (HLA-A*02:02; [6]): ≥ 70 µM; IC50 (HLA-A*02:01 [1]; [6]): ≥ 70 µM; IC50 (HLA-A*68:02 [2]; [6]): ≥ 70 µM; IC50 (HLA-A*02:06; [6]): 48.1 µM; IC50 (HLA-A*02:03; [6]): ≥ 70 µM
3 | EIDVSEVKT | 46 | ≥ 70 | ≥ 70 | ≥ 70 |  | IC50 (HLA-A*68:02 [2]; [7]): 20 µM
4 | QARQMVQAMRA |  |  |  |  |  | IC50 (HLA-A*02:02; [5]): 24.9 µM; IC50 (HLA-A*02:01 [1]; [5]): ≥ 70 µM; IC50 (HLA-A*68:02 [2]; [5]): 20 µM; IC50 (HLA-A*02:06; [5]): 55.2 µM; IC50 (HLA-A*02:03; [5]): ≥ 70 µM
5 | PLTLLIKTL | 5.27 |  | 8.1 | 6.15 |  | IC50 (HLA-A*02:01 [3]): 4.78 µM; IC50 (HLA-A*68:02 [2]; [7]): 6.22 µM
6 | ELTSNCTRT | ≥ 70 | 48.7 | 46.2 | ≥ 70 |  | IC50 (HLA-A*68:02 [2]; [7]): ≥ 70 µM
7 | RLEVIGLTT | 20 | 28.8 | ≥ 50 | 13.9 |  | IC50 (HLA-A*68:02 [2]; [7]): 13.1 µM
8 | QTLISLNSM | 19.4 |  | 7.5 | 39.3 |  | IC50 (HLA-A*02:01 [3]): 4.82 µM; IC50 (HLA-A*68:02 [2]; [7]): 19.4 µM
9 | DTCGASINIT | 23.6 | 42.6 | ≥ 70 | ≥ 70 | 1.93 | 
10 | NVQSLIKFI | 12.9 | 17.1 | 10.5 | 6.02 | 0.703 | 
11 | LLDEPLSPDT | 8.51 |  | 7.84 | 10.1 |  | IC50 (HLA-A*02:01 [3]): 3.6 µM; IC50 (HLA-A*68:02 [2]; [7]): ≥ 70 µM
12 | HTKFWISDNT | 21.5 | ≥ 70 | ≥ 70 | 60.2 | 0.623 | 
13 | FTELENKKV | 19.6 | ≥ 70 | 6.84 | 8.08 | 3.98 | 
14 | ETAIRAGYSI | 25.8 | 5.99 | 17.8 | 29.3 | 0.134 | 
15 | DTIESAKTKI | 47.9 | 58.9 | ≥ 70 | 50.5 | 0.57 | 
16 | LIYYQNEVT | 14 | 27.9 | 8.51 | 5.21 | 1.08 | 
17 | YCLDFLFDV |  |  |  |  |  | IC50 (HLA-A*68:02 [4]; [6]): 0.024 µM; IC50 (HLA-A*02:02; [6]): 17.3 µM; IC50 (HLA-A*02:01 [1]; [6]): 40.7 µM; IC50 (HLA-A*02:06; [6]): ≥ 70 µM; IC50 (HLA-A*02:03; [6]): ≥ 70 µM
18 | DVEKRILNTI | 21 | 55.1 | 10.8 | 12.6 | 4.4 | 
19 | YTEAAAATCA | 36.5 | 36.5 | 7.16 | 16.1 | 0.159 | 
20 | EVIGLTTHCT | 10.5 | 24.8 | 12.2 | 14.9 | 0.017 | 
21 | EIVKNIREGT | 28.5 | 11.8 | 60.7 | 8.53 | 0.431 | 
22 | VVIVENDNVI | 14.7 |  | 10.8 | 10.2 |  | IC50 (HLA-A*02:01 [3]): 2.83 µM; IC50 (HLA-A*68:02 [2]; [7]): 22.5 µM
23 | TVDFTDCRTI | 31.8 | 29.5 | 10.6 | 10.4 | 0.348 | 

Row | Sequence | IC50 (HLA-A*02:02; [7]) [µM] | IC50 (HLA-A*02:01 [1]; [7]) [µM] | IC50 (HLA-A*02:06; [7]) [µM] | IC50 (HLA-A*02:03; [7]) [µM] | IC50 (HLA-A*68:02 [4]; [7]) [µM] | also measured
24 | ETKRNIARHL | 50 | ≥ 70 | ≥ 70 | 12.4 | 0.721 | 
25 | HNASDFYGL |  |  |  |  |  | IC50 (HLA-A*68:02 [4]; [8]): 0.147 µM; IC50 (HLA-A*02:02; [8]): 6.51 µM; IC50 (HLA-A*02:01 [1]; [8]): 15.5 µM; IC50 (HLA-A*02:06; [8]): 21.8 µM; IC50 (HLA-A*02:03; [8]): ≥ 70 µM
26 | NIREGTHVLL | 8.88 | 13.4 | 34.6 | 5.51 | 2.53 | 
27 | DTEFINKFL | 7.42 | ≥ 70 | ≥ 70 | 42.7 | 0.117 | 
28 | LTSNCTRTT | ≥ 70 | ≥ 70 | 40.7 | 29.6 | 2.02 | 
29 | DMLLNVQTL | 7.4 |  | 13.4 | 5.07 |  | IC50 (HLA-A*02:01 [3]): 3.15 µM; IC50 (HLA-A*68:02 [2]; [7]): 5.05 µM
30 | DAIKSNNHLT | 27.4 | ≥ 70 | ≥ 70 | 17.9 | 0.768 | 
31 | DVIKSISSI | 63.8 | 32 | 15 | 7.52 | 0.504 | 
32 | SARALKAYFT | 21.6 | 58.4 | 25.7 | 7.81 | 4.15 | 
33 | NTLIQYRQQL | 6.37 | ≥ 70 | 20.9 | 10.1 | 0.876 | 
34 | TAEQLSKYV | 5.22 | 53.2 | 23.9 | 8.9 | 2.17 | 
35 | GLESIEQNLT | 7.02 | 34.4 | ≥ 70 | 61.3 | 1.44 | 
36 | CVKYLLDNDI | 31.8 | 13 | 7.58 | 5.67 | 1.98 | 
37 | TAIRAGYSI | 14.5 | 26.6 | 7.69 | 9.2 | 0.125 | 
38 | NVTVTHSV |  |  |  |  |  | IC50 (HLA-A*68:02 [4]; [5]): 1.27 µM; IC50 (HLA-A*02:02; [5]): 60.5 µM; IC50 (HLA-A*02:01 [1]; [5]): 22.6 µM; IC50 (HLA-A*02:06; [5]): 18.6 µM; IC50 (HLA-A*02:03; [5]): 14.6 µM
39 | ETFPNVHEHI | 8.02 | 23.9 | ≥ 70 | 6.62 | 0.00045 | 
40 | EAFETQSGA | ≥ 70 | ≥ 70 | ≥ 50 | ≥ 70 | 0.104 | 
41 | TVQIIKLL |  |  |  |  |  | IC50 (HLA-A*68:02 [4]; [5]): 1.38 µM; IC50 (HLA-A*02:02; [5]): 43.8 µM; IC50 (HLA-A*02:01 [1]; [5]): 47.2 µM; IC50 (HLA-A*02:06; [5]): 51.8 µM; IC50 (HLA-A*02:03; [5]): ≥ 70 µM
42 | NITHTNITTL | 10.4 | 10.1 | 8.17 | 5.02 | 4.91 | 
43 | IAVFDSKLI | 7.85 |  | 11.9 | 11.9 |  | IC50 (HLA-A*02:01 [3]): 3.85 µM; IC50 (HLA-A*68:02 [2]; [7]): 6.79 µM
44 | TAFFNTCKPT | 31.6 | 37.9 | 33 | 22.3 | 0.535 | 
45 | ELPVKTDIV | 23 | 11.1 | 11.5 | 8.06 | 3.59 | 
46 | WILWISFAIS |  |  |  |  |  | IC50 (HLA-A*68:02 [4]; [5]): 2.51 µM; IC50 (HLA-A*02:02; [5]): 18.7 µM; IC50 (HLA-A*02:01 [1]; [5]): 21.2 µM; IC50 (HLA-A*02:06; [5]): 27.2 µM; IC50 (HLA-A*02:03; [5]): 9.09 µM

Row | Sequence | IC50 (HLA-A*02:02; [7]) [µM] | IC50 (HLA-A*02:01 [1]; [7]) [µM] | IC50 (HLA-A*02:06; [7]) [µM] | IC50 (HLA-A*02:03; [7]) [µM] | IC50 (HLA-A*68:02 [4]; [7]) [µM] | also measured
47 | TAATKRYPGV | 25.5 | 43.1 | 5.57 | 10.5 | 0.96 | 
48 | CVDIFTEGKI | ≥ 70 | 43.2 | 20.9 | 17.5 | 1.31 | 
49 | CTEETKRNI | ≥ 70 | ≥ 70 | ≥ 70 | ≥ 70 | 3.92 | 
50 | ETIQKDINI | 36.6 | ≥ 70 | 34.9 | 50.8 | 0.046 | 
51 | SILNNPVDT | 47.1 |  | 14.2 | 30.6 |  | IC50 (HLA-A*02:01 [3]): 4.63 µM; IC50 (HLA-A*68:02 [2]; [7]): 46.8 µM
52 | IMECSRMLDT | 5.24 |  | ≥ 70 | 7.2 |  | IC50 (HLA-A*02:01 [3]): 3.1 µM; IC50 (HLA-A*68:02 [2]; [7]): ≥ 70 µM
53 | NTGMGMYYPT | 23.4 | 28.8 | 11.3 | 21 | 2.15 | 
54 | LTHGADPNA | 19.4 | ≥ 70 | 29.4 | 10.5 | 1.37 | 
55 | QQNNSFIIST | 7 |  | 5.71 | 5.04 |  | IC50 (HLA-A*02:01 [3]): 1.23 µM; IC50 (HLA-A*68:02 [2]; [7]): 8.51 µM
56 | TINALVYFST | 14.1 | 5.16 | 62.7 | 7.34 | 0.391 | 
57 | ETVKMGAFM | 15 | ≥ 70 | 40.2 | 7.43 | 0.081 | 
58 | EALYYVHSL | 14.2 | 17.6 | 14.8 | 5.77 | 0.347 | 
59 | IAIFNNRNL | 9.23 | 38.5 | 13.5 | 10.5 | 0.262 | 
60 | RASTTENAA | 26.7 | ≥ 70 | 12.1 | 66.7 | 0.314 | 
61 | DVNSVQFSI | 10.4 | 11.5 | 16.9 | 16.2 | 0.026 | 
62 | DTDIVNNFI | 9.32 | 26.2 | 15.7 | 19.4 | 0.628 | 
63 | SVDFVVNGHT | ≥ 70 | ≥ 70 | ≥ 70 | ≥ 70 | 1.34 | 
64 | ATCALVSDCA | 34.7 | 55.8 | 9.14 | 23.4 | 0.018 | 
65 | STSNVITDQT | 53.6 | 39.1 | 10.8 | ≥ 70 | 0.077 | 
66 | DVSVSVGTGI | 17.9 | ≥ 70 | 22.2 | 5.83 | 0.424 | 
67 | TVKNVDIIDL | 31.3 | 63.3 | 12.4 | 8.31 | 0.834 | 
68 | VAEHRFENM | 7.13 | ≥ 70 | 48.1 | 7.16 | 4.42 | 

Reference: the Immune Epitope Database (IEDB)
